The test system of series [1] is K. pneumoniae. The experiment in a line: KP_Sig TFD growth assay in vitro. In kind it is cell-based, Klebsiella pneumoniae. The settings on record: PCR_TFD, transfected using a cell penetrating peptide. From the text:
Cells were transfected as described in Example 13, using a cell penetrating peptide. […] The two controls used were: untreated cells (K. pneumoniae) and a control TFD consisting of a scrambled sequence.

In series [2] the test system is E. coli. The experiment in a line: FabB TFD growth assay with cerulenin in LB, polymixin co-transfectant. It is filed as cell-based, Escherichia coli. The method, then:
For example, a FabB decoy which targets the regulation of genes essential for fatty acid synthesis may be tested against suitable strain, e.g. E. coli grown in e.g. Luria-Bertani LB media (1% [w/v] Bacto-tryptone, 0.5% [w/v] Yeast extract, 1% [w/v] NaCl) in the presence of an antibiotic which acts on the process of fatty acid synthesis, e.g. Cerulenin.
The effect of TFDs on the growth of E. coli bacterial cultures was measured as described in Example 4.1 with a few modifications: the media used was LB; the co-transfectant used was 40 nM polymixin, rather than gramicidin; the media was also supplemented with 10 μg/ml Cerulenin (CER). CER is an antibiotic that acts on fatty acid synthesis.

The subject of series [3] is Staphylococcus aureus EMRSA 16. Nature of the series: Mouse sepsis model, tissue burden study. It is filed as in vivo. The method, then:
The mouse sepsis study was performed by Euprotec (UK). Mice used in this study, male CD1 mice were supplied by Charles River (Margate UK) and were specific pathogen free (16-18 g at delivery). All mice weighed 22-25 g at the beginning of the experiment.
For the tissue burden study, animals were treated in groups of 8 mice per treatment group, therefore 48 in total for the study. 2×10 ml cultures of Staphylococcus aureus EMRSA 16 were prepared and placed on orbital shaker (220 rpm) overnight at 37° C. The following day, the Staphylococcus aureus EMRSA 16 cultures were removed from shaker, pelleted and washed twice before being resuspended in saline to an OD of 0.132 (1.5×10^8 cfu/ml). This stock solution of Staphylococcus aureus EMRSA 16 was then further diluted 1:1.5 in saline (1×10^8 cfu/ml) i.e. 2.0×10^7 bacteria per mouse. 48 mice were then infected with 0.2 ml of the 1.0×10^8/mL suspension. The number of Staphylococcus aureus EMRSA 16 bacteria per mL in the remainder of the suspensions after inoculation was also counted to confirm infection load. Mice were treated 1, 9 and 17 hours post infection with either compound or vehicle, though vancomycin was only administered after 1h. The treatments were as previously a mixture of TFD/DOTAP/Lysostaphin using a concentration of InM/kg TFD in a 5:1 molar ratio with DOTAP and 63 μg/kg Lysostaphin. After 25 hours post infection all animals were weighed and then euthanized. The kidneys were immediately removed and homogenised in ice cold sterile phosphate buffered saline+0.05% Tween 80. Organ homogenates were quantitatively cultured onto CLED agar and incubated at 37° C. for up to 3 days and colonies counted. The data from the culture burdens was analysed by the Kruskal-Wallis test using Stats Direct.

Series [4] deals with S. aureus. The experiment in a line: Growth of S. aureus transfected by electroporation under conditions of stress. The settings on record: BHI or LB media with 30 mM KOH, vs mock-electroporation or unrelated sequence. It is filed as cell-based, Staphylococcus aureus. The method, then:
For example, stress response can be induced in a suitable strain e.g. S. aureus by growing in, e.g. LB media under conditions of stress, e.g. alkali conditions. For example LB media containing KOH, e.g. at 30 mM may be used. Untreated bacteria grow well in this media, due to the induction of the stress response by the alkali conditions, whereas those treated with the SA_sigB decoy, targeting the regulation of sigB which is a major part of the regulatory response to stress, grow poorly.
Decoy polynucleotides were transfected into S. aureus by electroporation. Bacterial cells were prepared by standard methods. Briefy, cells were grown to early exponential phase in LB media at 37° C. as defined as reaching an Absorbance of 0.3 at […]. The cells were chilled to 4° C. and harvested by low speed centrifugation and washed three times in a similar volume of sterile, ice-cold 10% (v/v) glycerol. Finally the cells were resuspended in a tenth of their original volume in 10% glycerol. […] 200 μl of cells were aliquoted into wells of a 96 well plate that was incubated at 37° C. with moderate shaking, growth was monitored by measuring absorbance.

Series [5] concerns EMRSA-16. Nature of the series: WalR_TFD in vitro growth and viable count assays on EMRSA-16. The settings on record: for effect on growth of EMRSA-16 in vitro: 1 nM TFD, DOTAP, Lysostaphin, BHI. It is filed as cell-based, Staphylococcus aureus. The method, then:
S. aureus EMRSA16 cultures were grown and maintained in BHI media (Becton Dickenson). Frozen stocks were prepared by mixing equal volumes of a culture in early exponential growth (OD of 0.3 at A600) with 50% glycerol and freezing at −80° C.
TFD-DOTAP complexes were formed by mixing 1 ug of TFD with 2 μg of DOTAP (Roche) and incubating at room temperature for 10 min on the bench. The TFD complex was then mixed with inoculated medium supplemented with 10 ng/ml Lysostaphin (Sigma; L9043), aliquoted into 96 well flat-bottomed plates and growth was analysed by culturing at 37° C. with shaking in a BioTek plate reader.
EMRSA-16, an MRSA strain endemic in UK hospitals, was used in the study (Cox, Mallaghan et al. 1995). TFDs were mixed with a commercially available lipid formulation, DOTAP, and mixed with media inoculated with EMRSA-16 and Lysostaphin. Lysostaphin is a lysozyme agent that acts on the walls of S. aureus, use of it in this experiment was to thin the outer peptidoglycan layer of the bacteria and allow the TFD to transfect the cell following fusion of the DOTAP carrier with the exposed inner membrane of the bacterium. […] The bacteria that were not killed by WalR_TFD treatment were sub-cultured in order to determine whether there was any incidence of resistance. The process was repeated a total of four times and both the reduction in viable counts (FIG. 17B) and in vitro growth curves were recorded (FIG. 17C, black squares: bacteria in fourth passage).
In order to determine whether TFDs killed bacteria on contact or needed prolonged exposure to work, EMRSA-16 were transfected with 1 nM WalR_TFD/DOTAP complex and incubated for 30 minutes before being microdiluted into fresh media, without any TFD complexes or Lysostaphin.

Series [6] deals with EMRSA15. The experiment in a line: DB-TFD growth assay on EMRSA15 with Lysostaphin co-treatment. It is filed as cell-based, Staphylococcus aureus. The settings on record: 10 nM DB-TFD; 0.5 to 2.5 pg/ml Lysostaphin. The method, then:
Growth assays were performed as described for Example 7.1 with the sole difference being that the media was supplemented with between 0.5 and 2.5 pg/ml Lysostaphin instead of Gramicidin. Lysostaphin is a lysozyme-like enzyme that is specific for the walls of S. aureus.

In series [7] the test system is clinically-isolated MRSA strain MRSA-5. The experiment in a line: Dumbbell Sig TFD growth assay on a clinically-isolated MRSA strain. In kind it is cell-based, Staphylococcus aureus. The settings on record: 10 nM TFD, dumbbell configuration. The method, then: A growth assay was performed as described in Example 5.1 using the Sig TFD in its dumbbell configuration and a clinically-isolated MRSA strain.

[8] abbreviates: statistical analysis of in vivo results.

Entries after “also recorded” stand apart in the source; their conditions may differ. {P} = phosphate

As for “KP_Sig: sigma 54 binding site from the K. pneumoniae glnA promoter, SEQ ID NO: 59, in a PCR_TFD (DNA TGGCACAGATTTCGCT; listed as DNA, chemistry not fully specified; listed as Klebsiella pneumoniae)”, the “effect on K. pneumoniae cell growth in vitro” value in series [1] was “prevented cell growth in vitro”; in series [1] (listed as KP_Sig TFD), “kills K. pneumoniae in vitro”.

With `C/C=C/C/C=C/CCC(=O)[C@H]1O[C@H]1C(N)=O` [cerulenin, reference compound], the “effect of cerulenin on growth of E. coli” value in series [2] (10 μg/ml Cerulenin) is recorded as “no noticeable effect on growth”. The “cerulenin concentration at which it begins to inhibit cell growth” value in series [2] (in the presence of the control TFD) came out at 20 µg/mL.

`CN[C@H](CC(C)C)C(=O)N[C@H]1C(=O)N[C@@H](CC(N)=O)C(=O)N[C@H]2C(=O)N[C@H]3C(=O)N[C@H](C(=O)N[C@H](C(=O)O)c4cc(O)cc(O)c4-c4cc3ccc4O)[C@H](O)c3ccc(c(Cl)c3)Oc3cc2cc(c3O[C@@H]2O[C@H](CO)[C@@H](O)[C@H](O)[C@H]2O[C@H]2C[C@](C)(N)[C@H](O)[C@H](C)O2)Oc2ccc(cc2Cl)[C@H]1O` [Vancomycin, vancomycin, reference compound]: the “Kruskal-Wallis all pairwise comparisons (Dwass-Steel-Chritchlow-Fligner) of kidney burden, versus Vehicle” value in series [3] (setting [8]) was determined as 0.0173.

Consider “LytM TFD: YycG/YycF binding site in LytM promoter, SEQ ID NO: 7 (DNA GCTATTTTGTAATGACAATGTAATGAGTTTAGTAAAAA; transcription factor decoy, made by PCR or oligonucleotide ligation, further chemistry not given here; listed as Staphylococcus aureus)”, for which, in series [4], the “growth of S. aureus under conditions of stress” value is reported as “capable of slowing the growth”.

B1: WalR_TFD: dumbbell TFD containing the binding site for the WalR protein as in the lytM promoter, SEQ ID NOs: 48 & 49 (nucleic acid, listed as Staphylococcus aureus)
chain 1: CTTGGTTTTTCCAAGTAATGAATGAGTTTAAAGCCCATGTAAAAGGGGTATCAGTAC
chain 2: CCCTCTTTTTGAGGGGTACTGATACCCCTTTTACATGGGCTTTAAACTCATTCATTA
modifications: dumbbell structure, further chemistry not given here
With B1, the “effect on growth of EMRSA-16 in vitro” value in series [5] is “prevented growth of EMRSA-16”. In series [5] (1 nM, incubated 30 minutes then diluted into fresh media without TFD or Lysostaphin, followed 48 hours), the “growth after limited contact” value is “unable to grow; also recorded: no growth was observed”. Further, the “total viable counts, reduction in number of living cells” value in series [5] (after in vitro growth experiment) is reported as “reduced the number of living cells by five-fold orders of magnitude”. Also, in series [5] (in vitro and in vivo), the “bacteriocidal activity against MRSA” value is reported as “rapid bacteriocidal activity at nanomolar concentrations”. The “development of resistance to TFD-mediated killing” value in series [5] (surviving bacteria sub-cultured and re-treated, repeated rounds) is “No resistance mechanism has been detected; also recorded: no evidence for the development of a resistance mechanism”. Further, the “inhibition of bacterial growth of EMRSA15” value (shortened to “inhibition … of EMRSA15”) in series [6] is given as “prevents growth of EMRSA15”. The “reduction in kidney burden of EMRSA-16” value in series [3] (mice, systemic injection 1, 9 and 17 hours post infection, 1 nM TFD complex, compared to Scr_TFD control) is “as effective as vancomycin in killing EMRSA-16”. Further, in series [3] (setting [8]), the “Kruskal-Wallis all pairwise comparisons (Dwass-Steel-Chritchlow-Fligner) of kidney burden, versus Vancomycin” value came to 0.2549 and the “Kruskal-Wallis all pairwise comparisons (Dwass-Steel-Chritchlow-Fligner) of kidney burden, versus Vehicle” value is 0.0062.

B2: Scr_TFD: TFD containing a scrambled version of the WalR binding site, SEQ ID NOs: 46 & 47 (nucleic acid, listed as Staphylococcus aureus)
chain 1: CTTGGTTTTTCCAAGGTAATATGACAAGATTGTAAATGACCTAGTTGAGAGATGCCA
chain 2: CCCTCTTTTTGAGGGTGGCATCTCTCAACTAGGTCATTTACAATCTTGTCATATTAC
modifications: dumbbell structure, further chemistry not given here
For B2, the “effect on growth of EMRSA-16 in vitro” value in series [5] is on record as “no detectable effect on bacterial growth”. Also, in series [6], the “inhibition … of EMRSA15” value is on record as “no effect”. For the same molecule, in series [3] (setting [8]), the “Kruskal-Wallis all pairwise comparisons (Dwass-Steel-Chritchlow-Fligner) of kidney burden, versus 1 nM WalR_TFD” value is given as 0.0043; the “Kruskal-Wallis all pairwise comparisons (Dwass-Steel-Chritchlow-Fligner) of kidney burden, versus Vancomycin” value is listed as 0.0062; the “Kruskal-Wallis all pairwise comparisons (Dwass-Steel-Chritchlow-Fligner) of kidney burden, versus Vehicle” value came out at 0.7804.

B3: SA3 TFD: Sig dumbbell TFD from phosphorylated oligonucleotides SEQ ID NOs: 40 & 41 (nucleic acid, listed as Staphylococcus aureus)
chain 1: CTTGGTTTTTCCAAGGAAGATTAGAAATTATTTCGATGGGTATATAATA
chain 2: CCGTCTTTTTGACGGTATTATATACCCATCGAAATAATTTCTAATCTTC
modifications: 5' {P}, sugars by position and backbone not given here; further chemistry not fully specified
Take B3: the “inhibition … of EMRSA15” value in series [6] is on record as “capable of inhibiting bacterial growth”. Moreover, the “inhibition of cell growth of clinically-isolated MRSA strain” value in series [7] is “repress the growth”.

Source of the values: US20180265915A1, “TRANSCRIPTION FACTOR DECOYS” (priority 2008, published 2018).
